The values that follow come from the DeepSol protein solubility set.

The series can be described thus: soluble on expression in E. coli; label from the status in PepcDB or PDB records.
Regarding “MHQAPATSTDENPPIESDVPMHHVYPSHHHHQHYQLPHLQQHPHPYSYPLYTFPYPIAPAFHQAQNPPMTSSVASGANGEHHHQPQQFFAPQYQVIPAGAIPVSTINIDPSQICPVDQMGMWTLPPPTGPNGMRYGIPIPAPLVPQITSSIMEASKMTSSTHTNATILNAMTASTSSNDSSSESGVSGVKEAKDEKKKSKIQADEKLRHEERQSTSDYTDDDPIPFTSRRSITGSVSYNYAEQIAERRRVEQQQEDRERQEMLEVERQRRVLEDRRNSEEEIRKQAELDRVEKDRLRMEQAAAAMEKARKEAELAKRARIYKHVFRGAEEEGGTEQLEELEQKILGVDIETGRRLLKEVSEVEWHKKQDEAEIRKNAPPQSDRSAHNLSSLSSGNQSARGRSSSISSPCKPDTSFTRNSIGRRSVRTTSREKQQESPKSSDQAVQHPLAASTPVRRPPRQPQALPTQDEIHVAREVPLANKSTTPSPTRSEMLRSAAIYCPINRDPLSQREELRAINRSTSNTGAYHNNNNNNNSKFEGAGVSRYNEITQTALFGPIATRNSIRRGTMRGTGLPSPPSVRVSTQNHQNQQRTSSFDESSSGGEEGGSISPDLGHKNFESPLPSSTENVHPASNSPPMKQIEGFEFKTPTRARSALSSPMSNFMNGGDNDSPISRPASRLMQRLEQKGTIRRDDEIISQEIRRVAETNLSRSPSLASLRGSMSNLAFRASQLNLAGTSGELPPNLTKFASVNSPARQSLSSMKKTTDRQAAVLERLGRLRESLHAGKNYTPPRNGISSSSRITTPAQTPPISPRPVM”, the “soluble on expression in E. coli” value is “not soluble”.

For “MIFNIQRYSTHDGPGIRTVVFLKGCSLGCRWCQNPESRARSEDLLYDSRLCLAGCELCQQAAPAVITRTLDGLIIHRQNVNDSHIAALRDCCPTTALTVCGEEKSVEEIMATVLRDKPFYDRSGGGITLSGGEPFMNPTLAQALFEASHQAGIHTAVETCLHVPWKYIEPSLPFVDLFLADLKHVDEAVFQQWTDGSARRVLDNLQRLAQAGKKMIIRVPLIQGFNASEADIAAITDFAADRLQVSEIHYLPYHTLGMNKYQLLSQPYTAPDKPLDAPELLVFAQDYAQSKGLTAILRG”, the “soluble on expression in E. coli” value is “not soluble”. Next, “MGHHHHHHSHEELGLKVGLEIHRQLDTKKLFSPVPTKFSDEVDFTFQRRLRPTMSELGEVDPAALEEFKKGRVFIYEGNYQLTDLVYMDEEPPRGPDKEALEVALQIAYLLNAKPVDEVYYMRKIVIDGSNVSGFQRTAIIATDGKVETPWGTVGIPTICLEEDAARIIERKEKEVIYRLDRLGVPLVEISTTPDIHHPEQAKVVAKFIGDALRATRKVKRGLGTIRQDLNVSIKGGARIEIKGVQELDMIPLIIEREVERQLNLLKIR”: “not soluble”; “AEGVKTTAEAPAAEPALAAYVPMPRPFLFNLPGPDRARLVEIKVQLMVRGQDDEVLTQKHIPLIEDALLTTFSGADVQKLSTQAGKDELRQLALLSVQNTLQPVTGRKVVEKVLFTGFVMQ”: “not soluble”; “MAHHHHHHMPFVVTHPPDTAELVEGEPFYSLAMYTLLSSTTDVVPALRNFTFQLRAFNVLPPYDAVGLLSGIDSTGLIVWGGALGFLEWLVQHPDRLQARMRNVSKAQAHVIELGCGSGVVAVALCALLRGLDLPDLVEKSISSSPAVCVWATDGNPECVSLAERNLRAQLKEPCTSCPGVAASAALLRWGDAAAVQEALQTSFPGCTAASSITVVAADVLYDAAVVPLLVSTVAEIARVHVAGAGPSTLPGSVEWWLAYTPRSLTRALNEAIFQALLDSIADHGWTYELVDLPAGAVATGFEENPDCSVPALSGCILVVQVTCDTRS”: “not soluble”. Then “DIVEAQPSHPDKLLEVPLGRDISGMVQTADLSKMPHLLIAGSTGSGKSVAINGIITGILMQAKPHEVKLMMIDPKMVELNVYNGIPHLLTPVVTNPRKAAQALQKVVQEMEFRYEKFAATGVRNITGYNQLIQQKNAEDGENRPILPFIVVIVDELADLMMVASNEVEDAIIRLAQMARAAGIHMILATQRPSV”, with “not soluble”. Then “AALSNLSIRTTAHRFMEEMSMYAQAPVALAARDRLNMLYLDVVQTNSTMRRPIGSTLPLHNSSMGRACLAATPKQERYFLLEAIQKREPENWIEIKEKLDIAFDQYAEYGYCLSLGEWQQGINSVAVPLMSTKHGLYVFNCGAPSYALSTEKLIEDIGPRLKYMVNSIQDALTESL”, with “not soluble”; and “MNERDIICAGCGVKIQTESKEMLGYTPPSALKRDVIICQRCFRMQHYNEVQDVSLTDDDFLKILHTIGERKALIVKLVDIFDFNGSWLPGLHRFVGGNDVLLIGNKVDLLPKSVNRNRMINWMRKSAKDLGLKPIDVALISGEKGIGVKEVASLIDRLRKGKDVYVVGATNVGKSTFINKMIQIFGGDEEQMITTSHFPGTTLDMIDIPLDDGKTLYDTPGIINHHQMAHYVAKNELKLITPKKEIKPKVFQLNEEQTLFFGGLARFDFVKGERTSFVCYVSNDLFIHRTKLEKADELYEKRLGDVLTPPEDPQHLPSLVKHEFTIRVQKVDVVISGLGWVTVNGTNVKVCAYAPEGVGVSIRESLILEHHHHHH”, with “soluble”. For “MEVHDSDAYKADEKEEEKAEEVELDDSDVESEEESEDEESDEDPEDGPAPRRFETFDDAKQFWAEHFEEELIPNEDLDLNCYLFNPNGEPVVPQPVKRAMNPRSLFNNQRPVQVYHQRWELLPNEEAEHWKEMWVQMRDEQREQIEEQLIEFRYSSKS”, the “soluble on expression in E. coli” value is “not soluble”. Next, “INPAAHGAMDELLGELRLHTVCREARCPNITECFRERQATFLILGAECTRLCSFCNVTKGEPLPPDPDEPARVAQAVVRLSLAHVVITSPTRDDLPDGGAGHYVATVATIGRVAPATVVELLIPDFLGSRAALADVVAAAPRIIGHNVETVPRLYAIRAGADYGRSLAVLRTLRELAPGCATKSGLMLGLGETEEEVLAVMADLRRVDCTYLSLGQYLAPSRFHHPVREFVLPETFDRLKELAEKMGFRHVESGPY”: “not soluble”; “MSLDSSPHSQVNDPLESFNRQMWTINYDYLDPYVVRPVSLFYVGYVPKPVRSGIANFLSNLDEPASMVNNLLMGNGTKAVDHFNRFWINTSFGLLGLIDIASEAGIKKYDDKAFSDAVGHYGVGNGPYLMVPGYGPYTVREVTDVVDGMYFPLAYLNIWAGVGKWALEGMETRAALVSQEALLQDSPDPYSLARDAYLQRQAFKAEIQVDDYDPEEEEYLDEYLNEGEGHHHHHH”: “soluble”. Then “MEPMHKINKVEVRNLQIEDYIQLSQSFKRVYADKDVFWTHEQIETLIRIFPEGQVVTVVDDKIVGCALSIIVDYDMVKGDHTYAKVTGNETFCTHNPEGNILYGIEVFIHPDYRGLRLARRMYEYRKELCEKLNLKAIMFGGRIPNYYKYADTMRPKEYLDKVRSREIYDPVLTFQLSNDFHVRRVMKNYLP”, with “not soluble”. In the case of “MAHHHHHHMSFSKFMKCSTQLSRRLSNFEGKGTFNKSAFYNCTREKCSIVCLRKKMNVELKKICEISKMNKRNYSSECENYEFKAETKKLLQIVAHSLYTDKEVFIRELISNSSDAIEKLRFLLQSGNIKASENITFHIKVSTDENNNLFIIEDSGVGMNKEEIIDNLGTIAKSGSLNFLKKLKEQKESINRNNNINKNEIDNKINNNNNMDVPIEGNEKSQEGDIIGQFGVGFYSSFVVSNKVEVFTRSYDNNSSKGYHWVSYGNGTFTLKEVDNIPKGTKIICHLKDSCKEFSNIQNVQKIVEKFSSFINFPVYVLKKKKILQTRKDIEQNELNDHTQQNELNHHNDQNDHTQQNELNHHNDQNDHTQQNELNHHNDQNDHTQQNELNHHVEHHKNVVENKNDEYEKNMDNRTSDNIKPESLSKQNDYENMNQCNNEETVLNRTKELNEEHIVEEILVNKQKPLWCKDNVTEEEHRHFFHFLNKNKSYNEDNKSYLYNMLYKTDAPLSIKSVFYIPEEAPSRLFQQSNDIEISLYCKKVLVKKNADNIIPKWLYFVKGVIDCEDMPLNISRENMQDSSLINKLSRVVVSKILKTLEREADINEEKYLKFYKNYNYNLKEGVLEDSNKNHYKNSLMNLLRFYSINQNKFISLKQYVNNFRNNQKNIYYFSANDKNVALNSPYMEPFKKQNIDVLLLLEEIDEFVLMNLQTYKDAKFVSIDTSQNEDFDEAVLNTNKNDNEKKQSIFFNDEQKKELQAYFKQVLGSK”, the “soluble on expression in E. coli” value is given as “not soluble”.
